Positions count from the first letter of the chain named. Numbers in names are those of the source.
B1: E147A-AIM2FL (natural protein, UniProt O14862 1-343, looked up)
chain: MESKYKEILLLTGLDNITDEELDRFKFFLSDEFNIATGKLHTANRIQVATLMIQNAGAVSAVMKTIRIFQKLNYMLLAKRLQEEKEKVDKQYKSVTKPKPLSQAEMSPAASAAIRNDVAKQRAAPKVSPHVKPEQKQMVAQQESIRAGFQKRCLPVMVLKAKKPFTFETQEGKQEMFHATVATEKEFFFVKVFNTLLKDKFIPKRIIIIARYYRHSGFLEVNSASRVLDAESDQKVNVPLNIIRKAGETPKINTLQTQPLGTIVNGLFVVQKVTEKKKNILFDLSDNTGKMEVLGVRNEDTMKCKEGDKVRLTFFTLSKNGEKLQLTSGVHSTIKVIKAKKKT
notes: AIM2 (absent-in-melanoma-2), full length, residues 1-343, with E147A in the HIN200 domain; source: E. coli ER2566, purified (amylose resin, HiTrap-SP, TEV cleavage, gel filtration); not shown: MBP, N-terminal, cleaved
B2: Q258A-AIM2FL (natural protein, UniProt O14862 1-343, looked up)
chain: B1 chain with A147E, Q258A
notes: AIM2 (absent-in-melanoma-2), full length, residues 1-343, with Q258A in the HIN200 domain; source: E. coli ER2566, purified (amylose resin, HiTrap-SP, TEV cleavage, gel filtration); not shown: MBP, N-terminal, cleaved
B3: I46D mutant of full-length AIM2 (natural protein, UniProt O14862 1-343, looked up)
chain: B1 chain with I46D, A147E
notes: AIM2 (absent-in-melanoma-2), residues 1-343, mutation in the PYD; Probably with the MBP tag removed as for wild-type AIM2^FL; source: E. coli ER2566, purified
B4: T50A-AIM2FL (natural protein, UniProt O14862 1-343, looked up)
chain: B1 chain with T50A, A147E
notes: AIM2 (absent-in-melanoma-2), full length, residues 1-343, with T50A in the PYD; source: E. coli ER2566, purified (amylose resin, HiTrap-SP, TEV cleavage, gel filtration); not shown: MBP, N-terminal, cleaved
B5: L10A-L11A-AIM2^FL (natural protein, UniProt O14862 1-343, looked up)
chain: B1 chain with L10A, L11A, A147E
notes: AIM2 (absent-in-melanoma-2), residues 1-343, mutations in the PYD; Probably with the MBP tag removed as for wild-type AIM2^FL; source: E. coli ER2566, purified

Tests used:
[1] = target: the molecule itself; assay: negative-stain electron microscopy; dsDNA-free AIM2FL variants at 2 uM adsorbed to carbon grids, stained with 1% uranyl formate or uranyl acetate; filaments
[2] = target: the molecule itself; assay: negative stain electron microscopy; purified protein incubated 30 min with λdsDNA (wild type also with supercoiled and nicked circular plasmids), 160 mM KCl; filament formation on dsDNA

Row | Protein | binding result [1] | binding result [2]
1 | B1 | binds | –
2 | B2 | binds | –
3 | B3 | – | binds
4 | B4 | binds | –
5 | B5 | – | binds

Source: publication PMC4525163, “Assembly-driven activation of the AIM2 foreign-dsDNA sensor provides a polymerization template for downstream ASC” (Nature Communications, 2015)
